The supplement of paper PMC9170038

Experiments:
[1] = tested on: K4 kissing-loop RNA reporter; test: apparent KD of K4 kissing-loop reporter; higher = weaker reporter binding; conditions: Eterna round: R107;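 further: bound reporter read as fluorescence of individual clusters on recovered sequencing chips by microscopy, with normalized cluster intensities fitted with a binding model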
Description: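 RNA-MaP round R107: designed RNA switches with theophylline, tryptophan, arginine or FMN aptamers are transcribed on-chip within common flanks. They are titrated with a labelled K4 kissing-loop RNA reporter in RNA-MaP buffer (100 mM Tris pH 7.5, 80 mM KCl, 4 mM MgCl2), without ligand or with the indicated ligand. Median apparent KD per design.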

[2] = tested on: MS2 coat protein; test: apparent KD of MS2 coat protein; designed switch direction (-1 OFF switch, 1 ON switch): -1; higher = weaker reporter binding
Summary of the method: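 Transcription of designed RNA switches on Illumina chips was done by stalled E. coli RNA polymerase. SNAP-549-labelled MS2 coat protein was then titrated in doubling steps from 0.7 or 1.5 nM to 3 µM, with steps of 0.8–1.5 h at the lowest and 10–20 min at the highest concentration. The per-design median over clusters of curve-fitted normalised fluorescence is reported as apparent KD.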

[3] = input ligand: theophylline 20 uM
[4] = input ligand: tryptophan 2.4 mM

Sequence | apparent KD of K4 kissing-loop reporter ([1]; input ligand: FMN 200 uM) [nM] | apparent KD of K4 kissing-loop reporter ([1]; input ligand: arginine 13.2 mM) [nM] | apparent KD of K4 kissing-loop reporter ([1]; input ligand: none) [nM] | apparent KD of K4 kissing-loop reporter [1, 3] [nM] | apparent KD of K4 kissing-loop reporter [1, 4] [nM] | apparent KD of MS2 coat protein ([2]; Eterna round: R95, input ligand: FMN 200 uM) [nM] | apparent KD of MS2 coat protein ([2]; Eterna round: R95, input ligand: microRNA oligo, concentration not stated) [nM] | apparent KD of MS2 coat protein ([2]; Eterna round: R95, input ligand: none) [nM] | apparent KD of MS2 coat protein ([2]; input ligand: FMN 200 uM) [nM] | apparent KD of MS2 coat protein ([2]; input ligand: none) [nM] | apparent KD of MS2 coat protein ([2]; input ligand: microRNA oligo, concentration not stated) [nM]
AGUGUUAGGUUAGAUACCAGCCGUUCGUGAAUAGUCUUCGAACCGCCAGUGAUGUUGGCAGGCCCUUGGCAGCUAACAGAACAGA [Lagelare] | 212 | 199 | 198 | 159 | 208 | – | – | – | – | – | –
AGGCACGAGCAAGGAUAUCGAGUAGAGUGAUGUUCUGCCUGGGUUGGCUCGGAAGAGCCUUCUCAGCGAGAAGGUGCUCGUGCCU [#2 Same State - FMN A Attempt #19 (HarryS)] | 235 | 604 | 747 | 923 | 888 | – | – | – | – | – | –
UUACUACCCAGUGAUGUUGGGUAGCGGCCACGAGGACCGGUACGGCCGCCACUCGAGGUUCGGGAGUGAUGUUCCUACUAUUUGG [Same state Tryptophan A GF 6] | 328 | 341 | 360 | 402 | 160 | – | – | – | – | – | –
AUCGUUGCCAUUAGGACAUACGGUCCUGAACGAGGACCGGUACGGCCGCCACUCGAGCACACGAGUGAUGUUCGUGGGCAACGAU [Tryp A SS t1] | 131 | 107 | 137 | 136 | 358 | – | – | – | – | – | –
UAAGUCUUAUCGGCCGCCACUCAUUACACGAAGUGAUGUUUCGGGUUUUAGACAAAUAAUUUUUGGAGGACCGGGAUACGAGAAA [theeternabot_sameState_KL_Trp_B_49] | 162 | 113 | 139 | 148 | 114 | – | – | – | – | – | –
UUAGGAGUGGAAGGAUAUCCUGGUGUGGGUGAUGUUAGUGAUGUUGGAGGUGCAGUGAUGUUGCGCGGAGAAGGUCCGGUGUUGA [BDazzled - #5 - Exc. FMN B] | 280 | 299 | 372 | 435 | 263 | – | – | – | – | – | –
UGACUGGAUGGAAGGAGCGCUAAACUCCUAGUGAUGUUAGGGAUAUGAGGCAAAGCCUUGAGGCAGGUAGGUCGCCAUCUAGUCU [FiskerMod 25 - Jieux - Same State - Arginine B] | 191 | 117 | 131 | 141 | 145 | – | – | – | – | – | –
UUAGGAGUGGGAGGAUAUCCUAAUGUGGGUGAUGUUAGCGAUGUUGAAAGUGUAGUGAUGUUGUGCGGAGAAGGUCCAGUGUUGA [BDazzled - #12 - Exc. FMN B] | 197 | 141 | 175 | 269 | 168 | – | – | – | – | – | –
AUAUCUAGAGUGAUGUUCUAGUAAGCUGAAGGAGCGGACGAAAGUCCAGGUAGGUCGCAGUGUUUUUACACCUCAUGUGUAGGAG [KL-SSArg-A7 #analogue] | 118 | 128 | 107 | 163 | 130 | – | – | – | – | – | –
GGAGGCCAGGCCUGCGAAGUGAUGUUUUGACGAGGACCGGUACGGCCGCCACUCGAAUGUUCUAUCAUCGUACGAACUUCUGCGU [theeternabot_exclusion_KL_Trp_A_26] | 593 | 415 | 496 | 527 | 394 | – | – | – | – | – | –
GCAAAACUCAGUGAUGUUGAGAUAUCGGAAGGAGCGCGUGAAAACGCAGGUAGGUCGCCGAUUCAAUGAGUUUCUCGUUGUUUGC [Arginine A K4 20] | 248 | 305 | 318 | 303 | 288 | – | – | – | – | – | –
CGCCGCAAGGCGAGCGCUCCCACUCCGGAAGGAGCGCCCGCAAGGGCAGGUAGGUCGCCGGAGUGAUGUUCCGGUGGAGGGCUCG [#2 Exclusion - Arginine A Attempt #15 (Inspired by Omei)] | 395 | 207 | 376 | 222 | 439 | – | – | – | – | – | –
GGAUAGGACAGAGGAUAUCUCUGAGGCAAGAAAACUUGUCUCAAAAGAGAUGACUCAGUGAUGUUGAGAGAAGGCUGUCCUAUCG [FmnBX 8 - #SwitchBubble #StaticStem] | 256 | 143 | 144 | 147 | 153 | – | – | – | – | – | –
GUGCGGCUAGUGAUGUUGGUUGCGUGGGAAGGAGCGCAGAAACAUGCAGGUAGGUCGCCCACACCUCUGAAAGAAGGUUAAUUCA [Biistian] | 218 | 140 | 203 | 231 | 207 | – | – | – | – | – | –
GCGUGCCAUGCAGGAUAUAGUUGUUCGAGUGAUGUUCGAGCCUUGCUAAGUUCGGAGCAUCAGCUUCUAGAAGGGCAUGGCACGC | 156 | 205 | 618 | 241 | 347 | – | – | – | – | – | –
AUUAAUUUCAGAGGAUAUGCUUUAUUAUUAUUUUUAAAUAAUAAAUGCAGUGAUGUUGCUUAUUAUGCAGAAGGCUGAUUUAUAA [JR_SSFMNB_Sub014] | 119 | 625 | 603 | 586 | 545 | – | – | – | – | – | –
AAACAUAAGUCUGAUACCAGCCUGGGAGAAGUGAUGUUUCUCGGUGCAUAACGCCUAUAAGGCCCUUGGCAGCAGCAUGCGCUUC [theeternabot_sameState_KL_Theo_B_10] | 547 | 485 | 569 | 471 | 516 | – | – | – | – | – | –
GCGAAAGCAAAACAAGUGAACAUGAGGAUCACCCAUGUCCUCAUUUGCUCGUCUUAUAAGCUAUGCGAAAGCAUAGC [Sensor 3, v1 - 9] (puzzle: Sensor v3, turn-off variant 1) | – | – | – | – | – | 99 | 1220 | 96.7 | – | – | –
ACCUCACAUGAGGAUCACCCAUGUCAGGAUAUCUGAUGUAGUCCCGUUCCGGACGCUGAGAGAAGGGACGUUGA [EX1 #39] (Eterna round: R97, puzzle: Exclusion 1) | – | – | – | – | – | – | – | – | 38.9 | 51.6 | –
GCUCGUCUUGUAAUGUUUAACAUGAGGAUCACCCAUGUCACCAACGUCGGAGAUGCAGGUUCAUGUUUUAAUGUAUA [Eternabot (L2) Solution 23] (Eterna round: R97, puzzle: Sensor, turn-off variant 1) | – | – | – | – | – | – | – | – | 83.5 | 82.6 | –
AUAUCACAUGAGGAUCACCCAUGUCAGGAUAUGAUACUAUGUACUUCGGUACAUAGUAUCAGAAGGGAUAUGAA [Ex1-3: 66] (Eterna round: R96, puzzle: Exclusion 1) | – | – | – | – | – | – | – | – | 83.3 | 40.3 | 29.2
